Assays:
Conditions in all cases: 50 nM cytokine coated
PLGF-1 = molecular target: T1, PLGF-1 (Homo sapiens, UniProt P49763); assay: ELISA binding to coated PLGF-1
T1 sequence (P49763 19-149 isoform P49763-2): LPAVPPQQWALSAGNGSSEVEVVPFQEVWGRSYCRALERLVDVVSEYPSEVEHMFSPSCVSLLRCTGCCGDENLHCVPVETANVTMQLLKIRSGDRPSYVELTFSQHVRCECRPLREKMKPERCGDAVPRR
Procedure: (§1) ELISA plates were coated with cytokines or BSA and further incubated with TNC III1-5 to analyze binding of TNC III1-5 to a wide variety of cytokines. […] Results are depicted in FIG. 3. Method: 50 nM of cytokine was coated for (1 hr, 37° C.). After blocking with 2% BSA (1 hr, RT). 100 nM TNC III1-5 was applied in PBST (0.05% tween, 0.1% bovine serum albumin (BSA)) (1 hr, RT). TNC III1-5 was detected with horseradish peroxidase (HRP)-anti-HIS in PBST (1 hr, RT) and developed with 3,3′,5,5′-tetramethylbenzidine (TMB), a soluble colorimetric HRP […]. Addition of sulfuric acid stop solution changes the color to yellow, enabling accurate measurement of the intensity at 450 nm using a spectrophotometer or plate reader. […] Heparin (4 μM) was added to TNC III1-5 to test the effect of blocking the heparin binding site of TNC III1-5, which has been defined as domain TNC III5 (Weber, Zimmermann, et al., 1995).
(§2) ELISA plates were coated with cytokines or BSA and further incubated with Fg β15-66 to analyze binding of […] to a wide variety of cytokines. […] Results are depicted in FIG. 4. Method: The methods were analogous to those used in Example 3.

BMP-2 = molecular target: T2, BMP-2 (Homo sapiens, UniProt P12643); assay: ELISA binding to coated BMP-2
T2 sequence (P12643 283-396): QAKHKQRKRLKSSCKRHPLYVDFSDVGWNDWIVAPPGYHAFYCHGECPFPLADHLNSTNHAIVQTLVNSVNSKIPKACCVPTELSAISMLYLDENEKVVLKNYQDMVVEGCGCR
Procedure: as §1, §2

IGF-BP5 = IGF-BP5 (Homo sapiens, UniProt P24593); assay: ELISA binding to coated IGF-BP5
Procedure: as §1, §2

TGF-β1 = TGF-β1 (Homo sapiens, UniProt P01137); assay: ELISA binding to coated TGF-β1
Procedure: as §1, §2

NT-3 = molecular target: T3, NT-3 (Homo sapiens, UniProt P20783); assay: ELISA binding to coated NT-3
T3 sequence (P20783 139-257): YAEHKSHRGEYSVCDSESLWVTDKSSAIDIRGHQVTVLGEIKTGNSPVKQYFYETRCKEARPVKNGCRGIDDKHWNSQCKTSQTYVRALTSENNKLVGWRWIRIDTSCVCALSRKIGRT
Procedure: as §1, §2

PLGF-2 = molecular target: T4, PLGF-2 (Homo sapiens, UniProt P49763); assay: ELISA binding to coated PLGF-2
T4 sequence (P49763 19-170 isoform P49763-3 limits assumed): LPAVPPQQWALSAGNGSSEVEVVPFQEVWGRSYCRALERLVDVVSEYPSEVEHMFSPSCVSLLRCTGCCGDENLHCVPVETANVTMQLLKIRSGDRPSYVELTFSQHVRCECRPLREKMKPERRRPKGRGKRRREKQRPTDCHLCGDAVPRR
Procedure: as §1, §2

FGF-2 = FGF-2 (Homo sapiens, UniProt P09038); assay: ELISA binding to coated FGF-2
Procedure: as §1, §2

TGF-β2 = molecular target: T5, TGF-β2 (Homo sapiens, UniProt P61812); assay: ELISA binding to coated TGF-β2
T5 sequence (P61812 303-414 limits assumed): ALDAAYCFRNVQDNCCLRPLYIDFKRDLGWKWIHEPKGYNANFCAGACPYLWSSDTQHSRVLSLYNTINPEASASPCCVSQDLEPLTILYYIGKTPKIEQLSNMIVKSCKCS
Procedure: as §1, §2

PDGF-AB = PDGF-AB (Homo sapiens, UniProt P01127+P04085); assay: ELISA binding to coated PDGF-AB
Procedure: as §1, §2

IGF-BP3 = IGF-BP3 (Homo sapiens, UniProt P17936); assay: ELISA binding to coated IGF-BP3
Procedure: as §1, §2

VEGF-A165 = molecular target: T6, VEGF-A165 (Homo sapiens, UniProt P15692); assay: ELISA binding to coated VEGF-A165
T6 sequence (P15692 1-191 isoform P15692-4): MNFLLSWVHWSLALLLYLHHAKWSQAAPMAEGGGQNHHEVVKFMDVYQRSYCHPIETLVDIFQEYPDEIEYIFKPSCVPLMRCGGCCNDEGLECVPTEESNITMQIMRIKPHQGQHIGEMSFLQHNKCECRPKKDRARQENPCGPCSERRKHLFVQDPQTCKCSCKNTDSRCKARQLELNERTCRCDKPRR
Procedure: as §1, §2

FGF-7 = molecular target: T7, FGF-7 (Homo sapiens, UniProt P21781); assay: ELISA binding to coated FGF-7
T7 sequence (P21781 32-194): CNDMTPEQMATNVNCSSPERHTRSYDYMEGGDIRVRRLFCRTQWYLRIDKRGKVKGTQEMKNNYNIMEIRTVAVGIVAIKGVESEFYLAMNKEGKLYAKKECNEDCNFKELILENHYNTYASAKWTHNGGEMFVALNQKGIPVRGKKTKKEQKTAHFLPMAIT
Procedure: as §1, §2

BDNF = molecular target: T8, BDNF (Homo sapiens, UniProt P23560); assay: ELISA binding to coated BDNF
T8 sequence (P23560 129-247): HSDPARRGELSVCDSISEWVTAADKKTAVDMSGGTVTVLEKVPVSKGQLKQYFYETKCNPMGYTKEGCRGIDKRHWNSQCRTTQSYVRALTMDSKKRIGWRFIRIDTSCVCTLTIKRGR
Procedure: as §1, §2

FGF-10 = molecular target: T9, FGF-10 (Homo sapiens, UniProt O15520); assay: ELISA binding to coated FGF-10
T9 sequence (O15520 38-208): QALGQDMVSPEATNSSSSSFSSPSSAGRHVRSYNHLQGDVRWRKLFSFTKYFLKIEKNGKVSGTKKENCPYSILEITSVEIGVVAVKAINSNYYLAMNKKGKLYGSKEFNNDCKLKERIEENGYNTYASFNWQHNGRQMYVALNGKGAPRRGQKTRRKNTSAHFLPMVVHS
Procedure: as §1, §2

PDGF-BB = PDGF-BB (Homo sapiens, UniProt P01127); assay: ELISA binding to coated PDGF-BB
Procedure: as §1, §2

VEGF-B = molecular target: T10, VEGF-B (Homo sapiens, UniProt P49765); assay: ELISA binding to coated VEGF-B
T10 sequence (P49765 22-207): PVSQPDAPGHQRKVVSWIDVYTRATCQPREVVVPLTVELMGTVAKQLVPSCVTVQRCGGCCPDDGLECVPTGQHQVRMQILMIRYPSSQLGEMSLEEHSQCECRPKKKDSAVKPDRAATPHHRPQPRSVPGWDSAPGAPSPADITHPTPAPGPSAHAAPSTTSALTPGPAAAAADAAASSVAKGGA
Procedure: as §1, §2

Chain of IGF-BP3 (P17936 28-291, species assumed): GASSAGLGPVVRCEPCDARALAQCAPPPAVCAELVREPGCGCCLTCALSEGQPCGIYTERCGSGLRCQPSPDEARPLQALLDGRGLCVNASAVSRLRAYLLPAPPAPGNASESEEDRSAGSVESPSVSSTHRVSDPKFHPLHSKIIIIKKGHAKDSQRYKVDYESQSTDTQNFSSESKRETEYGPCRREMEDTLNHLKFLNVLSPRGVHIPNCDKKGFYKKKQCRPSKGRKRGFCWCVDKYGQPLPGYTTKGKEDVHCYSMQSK
Chain of PDGF-BB (P01127 82-190 limits assumed): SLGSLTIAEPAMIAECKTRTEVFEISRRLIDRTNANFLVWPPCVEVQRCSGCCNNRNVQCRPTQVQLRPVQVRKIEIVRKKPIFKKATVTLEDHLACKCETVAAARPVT
Chain of PDGF-AB (P01127 82-190 limits assumed, other chains not shown): as the sequence (P01127 82-190 limits assumed) above
Chain of TGF-β1 (P01137 279-390 limits assumed, species assumed): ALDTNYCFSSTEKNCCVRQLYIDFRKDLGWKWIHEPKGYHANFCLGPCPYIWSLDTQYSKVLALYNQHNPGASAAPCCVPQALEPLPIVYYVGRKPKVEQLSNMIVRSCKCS
Chain of IGF-BP5 (P24593 21-272, species assumed): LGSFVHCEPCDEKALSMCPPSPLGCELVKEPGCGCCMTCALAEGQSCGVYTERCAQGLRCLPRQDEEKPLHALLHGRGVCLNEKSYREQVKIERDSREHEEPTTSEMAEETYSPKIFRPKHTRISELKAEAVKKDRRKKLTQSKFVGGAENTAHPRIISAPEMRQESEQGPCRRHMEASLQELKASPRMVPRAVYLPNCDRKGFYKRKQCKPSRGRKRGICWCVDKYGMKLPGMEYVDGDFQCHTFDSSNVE
Chain of FGF-2 (P09038 143-288, species assumed): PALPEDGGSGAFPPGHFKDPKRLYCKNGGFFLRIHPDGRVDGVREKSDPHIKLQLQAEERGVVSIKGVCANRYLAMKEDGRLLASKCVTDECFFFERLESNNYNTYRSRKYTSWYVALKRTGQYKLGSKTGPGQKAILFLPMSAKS

Row | Molecule | binding to PLGF-1 (ELISA, signal above BSA background) (PLGF-1) | binding to BMP-2 (ELISA, signal above BSA background) (BMP-2) | binding to IGF-BP5 (ELISA, signal above BSA background) (IGF-BP5) | binding to TGF-β1 (ELISA, signal above BSA background) (TGF-β1) | binding to NT-3 (ELISA, signal above BSA background) (NT-3) | binding to PLGF-2 (ELISA, signal above BSA background) (PLGF-2) | binding to FGF-2 (ELISA, signal above BSA background) (FGF-2) | binding to TGF-β2 (ELISA, signal above BSA background) (TGF-β2) | binding to PDGF-AB (ELISA, signal above BSA background) (PDGF-AB) | binding to IGF-BP3 (ELISA, signal above BSA background) (IGF-BP3) | binding to VEGF-A165 (ELISA, signal above BSA background) (VEGF-A165) | binding to FGF-7 (ELISA, signal above BSA background) (FGF-7) | binding to BDNF (ELISA, signal above BSA background) (BDNF) | binding to FGF-10 (ELISA, signal above BSA background) (FGF-10) | binding to PDGF-BB (ELISA, signal above BSA background) (PDGF-BB) | binding to VEGF-B (ELISA, signal above BSA background) (VEGF-B)
1 | TNC III1-5: recombinant tenascin C fibronectin type III repeats 1-5 (E622 to A1074) with transglutaminase substrate NQEQVSPL and 6×His tag, SEQ ID NO:1 (protein, Tenascin III signal sequence with polyhistidine tag) METDTLLLWVLLLWVPGSTGDAAQPAIEGRNQEQVSPLGGSEVSPPKDLVVTEVTEETVNLAWDNEMRVTEYLVVYTPTHEGGLEMQFRVPGDQTSTIIQELEPGVEYFIRVFAILENKKSIPVSARVATYLPAPEGLKFKSIKETSVEVEWDPLDIAFETWEIIFRNMNKEDEGEITKSLRRPETSYRQTGLAPGQEYEISLHIVKNNTRGPGLKRVTTTRLDAPSQIEVKDVTDTTALITWFKPLAEIDGIELTYGIKDVPGDRTTIDLTEDENQYSIGNLKPDTEYEVSLISRRGDMSSNPAKETFTTGLDAPRNLRRVSQTDNSITLEWRNGKAAIDSYRIKYAPISGGDHAEVDVPKSQQATTKTTLTGLRPGTEYGIGVSAVKEDKESNPATINAATELDTPKDLQVSETAETSLTLLWKTPLAKFDRYRLNYSLPTGQWVGVQLPRNTTSYVLRGLEPGQEYNVLLTAEKGRHKSKPARVKASTEQAGGGSHHHHHH | positive binding | positive binding | positive binding | positive binding | positive binding | positive binding | positive binding | positive binding | positive binding | positive binding | positive binding | positive binding | positive binding | positive binding | positive binding | positive binding
2 | Fg β15-66: heparin-binding domain of human fibrinogen β chain aa15-66 (SEQ ID NO:8); construct with TG substrate and His tag, SEQ ID NO:2 (protein, GS linker, transglutaminase substrate, the Fg beta15-66, with a Histidine tag) GSNQEQVSPLGHRPLDKKREEAPSLRPAPPPISGGGYRARPAKAAATQKKVERKAPDAGGCGHHHHHH | did not bind | positive binding | positive binding | positive binding | positive binding | positive binding | positive binding | positive binding | positive binding | positive binding | positive binding | positive binding | positive binding | positive binding | positive binding | positive binding
